Test results: article PMC10318635, “ER Ca^2+ overload activates the IRE1α signaling and promotes cell survival” (Cell & Bioscience, 2023)

Biological target: T1, Flag-tagged IRE1α-LD (UniProt O75460 19-440)
T1 construct: signal peptide in the construct; inositol-requiring enzyme 1 (IRE1α/ERN1), luminal domain (LD), residues 1-440; The signal peptide is probably removed in HEK-293T cells; also called IRE1α-LD-FLAG; LD-FLAG; source: HEK-293T, purified (M2 beads, eluted with Flag peptide, concentrated by ultrafiltration)
T1 sequence (looked up): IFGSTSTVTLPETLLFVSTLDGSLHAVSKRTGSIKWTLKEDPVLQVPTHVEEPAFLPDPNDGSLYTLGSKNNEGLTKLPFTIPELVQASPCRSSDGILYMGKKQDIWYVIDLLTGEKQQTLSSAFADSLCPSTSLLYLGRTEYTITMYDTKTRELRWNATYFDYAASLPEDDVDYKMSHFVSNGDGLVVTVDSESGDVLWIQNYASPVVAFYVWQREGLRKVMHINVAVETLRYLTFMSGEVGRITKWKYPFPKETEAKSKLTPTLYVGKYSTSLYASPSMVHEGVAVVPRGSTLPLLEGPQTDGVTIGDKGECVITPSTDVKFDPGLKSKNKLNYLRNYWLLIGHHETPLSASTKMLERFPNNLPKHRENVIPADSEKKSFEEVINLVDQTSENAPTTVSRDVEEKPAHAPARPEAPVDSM
Experiment: pull-down; GST-BiP-NBD immobilized on glutathione Sepharose 4B beads, incubated with IRE1α-LD-FLAG eluate in buffer B (50 mM HEPES, 75 mM NaCl, 10% glycerol, 1 mM TCEP, pH 7.5) with 0.5 or 0.8 mM Ca2+, room temperature, 2 h; anti-FLAG immunoblot
Conditions: both partners purified

B1: GST-tagged BiP-nucleotide binding domain (NBD) (domain or fragment)
chain: not shown
notes: also called GST-BiP-NBD; BiP-NBD; source: bacterially purified, immobilized on glutathione Sepharose 4B beads
**Q.** Does B1 bind?
**A.** binds
